T1: ScLsm3 (Saccharomyces cerevisiae, UniProt P57743 1-89)
T1 sequence: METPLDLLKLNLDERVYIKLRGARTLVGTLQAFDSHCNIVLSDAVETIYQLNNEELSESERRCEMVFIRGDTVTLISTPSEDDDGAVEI


Assays:
[1] = biological target: SpLsm2 (of SpLsm2/3);SpLsm3 (of SpLsm2/3) (Schizosaccharomyces …, UniProt O94408;Q9Y7M4 1-96;1-93, |); test: fluorescence anisotropy; FA: 20 mM Hepes pH 7.5, 100 mM NaCl, 25 C, 0.1 uM RNA; SPR (Biacore 3000): 20 mM Hepes pH 7.5, 100 mM NaCl, 25 C, 1 uM protein; details: protein: recombinant;recombinant; tags: N-terminal His6;none; label: 5' 6-FAM; single strand
SpLsm5;SpLsm6;SpLsm7 = SpLsm5;SpLsm6;SpLsm7 (Schizosaccharomyces …, UniProt O42978;Q9UUI1;O74499 1-80;1-75;1-113, ||); test: as above; details: protein: recombinant;recombinant;recombinant; tags: N-terminal His6;none;; chain copies: 2;2;2; label: 5' 6-FAM; single strand
ScLsm3 = biological target: T1, ScLsm3; test: SPR; 1 uM protein; FA: 20 mM Hepes pH 7.5, 100 mM NaCl, 25 C, 0.1 uM RNA; SPR (Biacore 3000): 20 mM Hepes pH 7.5, 100 mM NaCl, 25 C, 1 uM protein; details: protein: recombinant; tags: His6 removed by PreScission; chain copies: 8; label: 5' biotin; single strand

Chain of SpLsm2 (of SpLsm2/3);SpLsm3 (of SpLsm2/3) (O94408 whole entry, chain 1 of 2): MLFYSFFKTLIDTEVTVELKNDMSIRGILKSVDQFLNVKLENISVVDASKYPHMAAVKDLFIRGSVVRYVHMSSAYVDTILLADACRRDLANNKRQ
Chain of SpLsm2 (of SpLsm2/3);SpLsm3 (of SpLsm2/3) (Q9Y7M4 whole entry, chain 2 of 2): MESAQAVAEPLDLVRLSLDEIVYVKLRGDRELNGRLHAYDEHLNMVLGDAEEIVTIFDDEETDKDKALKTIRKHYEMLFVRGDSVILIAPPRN
Chain of SpLsm5;SpLsm6;SpLsm7 (O42978 whole entry, chain 1 of 3): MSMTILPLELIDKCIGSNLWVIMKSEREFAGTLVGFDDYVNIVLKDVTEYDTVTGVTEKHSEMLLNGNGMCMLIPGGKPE
Chain of SpLsm5;SpLsm6;SpLsm7 (Q9UUI1 whole entry, chain 2 of 3): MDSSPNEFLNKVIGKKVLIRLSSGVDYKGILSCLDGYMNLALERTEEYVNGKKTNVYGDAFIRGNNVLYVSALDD
Chain of SpLsm5;SpLsm6;SpLsm7 (O74499 whole entry, chain 3 of 3): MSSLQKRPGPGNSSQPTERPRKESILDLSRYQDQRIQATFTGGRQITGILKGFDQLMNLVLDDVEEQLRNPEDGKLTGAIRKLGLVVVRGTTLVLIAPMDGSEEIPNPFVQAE

Binder	Kd [1]	Kd (SpLsm5;SpLsm6;SpLsm7)	binding result (ScLsm3)
UUUUUUUUUUUUUUU (ssRNA) [U15 (FAM)]	4 ± 0.5 µM	52.5 ± 10 µM	
UUUUUUUUUUUUUUU (ssRNA) [U15 (biotin)]			no binding
